{"source": "paper PMC3644067", "about": "(Nature Communications, 2013)", "target": "T1, α4 (3–233) E206R (human, UniProt P78318 3-233, E206R)", "T1 sequence (looked up)": "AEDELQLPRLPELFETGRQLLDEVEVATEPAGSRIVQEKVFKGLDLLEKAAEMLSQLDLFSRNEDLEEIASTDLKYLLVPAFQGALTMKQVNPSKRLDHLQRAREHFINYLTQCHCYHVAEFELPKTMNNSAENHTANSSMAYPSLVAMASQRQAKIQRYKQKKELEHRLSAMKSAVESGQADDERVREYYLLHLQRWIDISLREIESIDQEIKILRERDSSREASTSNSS", "experiment": "pull-down", "data": [{"binder": "GST-tagged nPP2Ac (1–153) (domain or fragment, human, UniProt P67775 1-153, looked up) MDEKVFTKELDQWIEQLNECKQLSESQVKSLCEKAKEILTKESNVQEVRCPVTVCGDVHGQFHDLMELFRIGGKSPDTNYLFMGDYVDRGYYSVETVTLLVALKVRYRERITILRGNHESRQITQVYGFYDECLRKYGNANVWKYFTDLFDYL", "values": [{"measurement": "binding result", "result": "binds"}]}]}
